Experimental data from patent US7176293.

Assays:
[1] = molecular target: E2 ubiquitin-conjugating enzyme UbchD2, P62837
[2] = molecular target: E2 ubiquitin-conjugating enzyme Ubch8, O14933
Sequence of E2 ubiquitin-conjugating enzyme Ubch8, O14933 (O14933 whole entry): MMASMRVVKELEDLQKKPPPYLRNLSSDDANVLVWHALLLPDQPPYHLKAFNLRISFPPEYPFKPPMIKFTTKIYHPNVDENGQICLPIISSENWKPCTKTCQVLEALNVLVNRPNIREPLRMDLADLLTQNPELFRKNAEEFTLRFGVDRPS

Sequence of E2 ubiquitin-conjugating enzyme UbchD2, P62837 (P62837 whole entry, looked up): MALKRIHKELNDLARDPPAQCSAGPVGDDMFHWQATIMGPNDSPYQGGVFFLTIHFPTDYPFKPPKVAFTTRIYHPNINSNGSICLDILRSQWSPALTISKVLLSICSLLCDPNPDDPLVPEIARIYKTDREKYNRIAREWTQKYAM

B1: GST-Chfr (glutathione S-transferase fused to the N-terminus of full-length human Chfr) (protein)
chain: MERPEEGKQSPPPQPWGRLLRLGAEEGEPHVLLRKREWTIGRRRGCDLSFPSNKLVSGDHCRIVVDEKSGQVTLEDTSTSGTVINKLKVVKKQTCPLQTGDVIYLVYRKNEPEHNVAYLYESLSEKQGMTQESFEANKENVFHGTKDTSGAGAGRGADPRVPPSSPATQVCFEEPQPSTSTSDLFPTASASSTEPSPAGRERSSSCGSGGGGISPKGSGPSVASDEVSSFASALPDRKTASFSSLEPQDQEDLEPVKKKMRGDGDLDLNGQLLVAQPRRNAQTVHEDVRAAAGKPDKMEETLTCIICQDLLHDCVSLQPCMHTFCAACYSGWMERSSLCPTCRCPVERICKNHILNNLVEAYLIQHPDKSRSEEDVQSMDARNKITQDMLQPKVRRSFSDEEGSSEDLLELSDVDSESSDISQPYVVCRQCPEYRRQAAQPPHCPAPEGEPGAPQALGDAPSTSVSLTTAVQDYVCPLQGSHALCTCCFQPMPDRRAEREQDPRVAPQQCAVCLQPFCHLYWGCTRTGCYGCLAPFCELNLGDKCLDGVLNNNSYESDILKNYLATRGLTWKNMLTESLVALQRGVFLLSDYRVTGDTVLCYCCGLRSFRELTYQYRQNIPASELPVAVTSRPDCYWGRNCRTQVKAHHAMKFNHICEQTRFKN
ubiquitin-protein ligase activity in vitro (ubiquitination of GST-Chfr, anti-ubiquitin immunoblot) [1]: supported the ubiquitin-protein ligase activity of Chfr | ubiquitin-protein ligase activity in vitro (ubiquitination of GST-Chfr, anti-ubiquitin immunoblot) [2]: did not function in this assay
